One test has as its target T1, human PD1 (hPD1) (human, UniProt Q15116 25-288, limits assumed).
T1 construct: Stood in the ELISA as a lysate of cells expressing hPD1
As to the kind of experiment: ELISA; lysate of hPD1-expressing cells coated on plate, scFv from stable 293A culture medium. (An ELISA detects its analyte on a solid surface through an enzyme-linked reagent.)

The target in a further test is T2, mouse PD1 (mPD1) (mouse, UniProt Q02242 25-288, limits assumed).
T2 construct: Stood in the ELISA as a lysate of cells expressing mPD1
T2 sequence (looked up): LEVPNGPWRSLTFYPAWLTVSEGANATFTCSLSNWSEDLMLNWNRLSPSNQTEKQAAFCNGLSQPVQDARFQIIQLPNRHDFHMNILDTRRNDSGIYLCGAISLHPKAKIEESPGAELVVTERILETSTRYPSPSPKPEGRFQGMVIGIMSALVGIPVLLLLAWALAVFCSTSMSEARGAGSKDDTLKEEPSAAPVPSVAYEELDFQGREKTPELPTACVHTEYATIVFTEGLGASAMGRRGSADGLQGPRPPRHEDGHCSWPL
As to the kind of experiment: ELISA; lysate of mPD1-expressing cells coated on plate, scFv from stable 293A culture medium.

T1 sequence (Q15116 25-288 limits assumed): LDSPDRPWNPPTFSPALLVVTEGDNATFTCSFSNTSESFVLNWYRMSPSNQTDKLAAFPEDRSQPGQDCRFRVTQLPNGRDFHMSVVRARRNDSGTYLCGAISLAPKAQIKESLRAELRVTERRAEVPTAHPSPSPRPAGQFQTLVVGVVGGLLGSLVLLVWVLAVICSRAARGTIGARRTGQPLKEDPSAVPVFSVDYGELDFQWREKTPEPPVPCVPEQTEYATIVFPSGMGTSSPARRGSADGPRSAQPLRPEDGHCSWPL

B1: scFvPD1(I) (scFv, not shown: small tags and cut ends)
scFv: QVQLVQSGAEVKKPGASVKVSCKASGYTFTAQYMHWVRQAPGQGLEWMGIINPSGGETGYAQKFQGRVTMTRDTSTSTVYMELSSLRSEDTAVYYCAKEGVADGYGLVDVWGQGTMVTVSSGGGGSGGGGSGGGGSGGGGSEIVLTQSPATLSLSPGERATLSCRASQSVSSYLAWYQQKPGQAPRLLIYDASKRATGIPARFSGSGSGTDFTLTISSLEPEDFAVYYCDQRNNWPLTFGGGTKVEIK
notes: also called single chain variable fragment PD1; PD1scFv
Regarding B1, the binding result with human PD1 (hPD1) and with mouse PD1 (mPD1) was “binds” each time.

The record behind these values is US20230390320A1 (RZNOMICS, published 2023).
